The source of these data is US20240117073A1, “METHODS OF TREATING NEOPLASTIC ASTROCYTOMA” (Ludwig Institute for Cancer Research Ltd., priority 2009, published 2024).

“Also recorded” adds a separate entry of the source.

The target in assay [1] is T1, biotinylated de2-7 specific peptide (Homo sapiens, UniProt P00533, DELINS30-297G).
T1 construct: purchased Auspep, Melbourne, Australia; host or cells: synthetic (Fmoc chemistry)
The assay is described as follows: ELISA on de2-7 peptide. The format is binding. The text has this:
In the second assay, the biotinylated de2-7 specific peptide (Biotin-[…] (SEQ ID NO:5)) was bound to ELISA plates precoated with streptavidin (Pierce, Rockford, Illinois). Antibodies were bound and detected as in the first assay.
(In general: An ELISA detects its analyte on a solid surface through an enzyme-linked reagent.)

Assay [2] addresses T2, EGFR from U87MG.wtEGFR and A431 cells (Homo sapiens, UniProt P00533).
T2 construct: expressed in transfected cells; host or cells: U87MG.wtEGFR (transfected with wtEGFR) and A431 (endogenous, amplified gene)
The assay is described as follows: immunoprecipitation and Endo H digestion. It counts as binding. The method, then: This possibility was tested by immunoprecipitating the EGFR from different cells lines labelled overnight with ^35S methionine/cysteine and then subjecting the resultant precipitates to Endoglycosidase H (Endo H) digestion. This enzyme preferentially removes high mannose type carbohydrates (i.e. immature glycosylation) from proteins while leaving complex carbohydrates (i.e. mature glycosylation) intact.

In the next assay the test system is U87MG brain xenografts. The assay is described as follows: systemic treatment of intracranial xenografts. Also on record: species or system nude mice. The note with it: mouse, in vivo.
The target of another assay is T3, de2-7 EGFR and wtEGFR (Homo sapiens, UniProt P00533, DELINS30-297G).
T3 construct: expressed in transfected cells; host or cells: NR6ΔEGFR and U87MG.ΔEGFR/U87MG.Δ2-7 (transfected ΔEGFR); U87MG.wtEGFR (transfected wtEGFR); U87MG and A431 (endogenous wtEGFR)
The assay is described as follows: immunoprecipitation from 35S-labeled cells. It counts as binding. The method, then:
Briefly, cells were labeled for 16 h with […] of Tran ^35S-Label (ICN Biomedicals, Irvine, CA) in DMEM without methionine/cysteine supplemented with 5% dialyzed FCS. After washing with PBS, cells were placed in lysis buffer (1% Triton X-100, 30 mM HEPES, 150 mM NaCl, 500 μM 4-(2-aminoethyl) benzenesulfonylfluoride (AEBSF), 150 nM aprotinin, 1 μM E-64 protease inhibitor, 0.5 mM EDTA, and 1 μM leupeptin, pH 7.4) for 1 h at 4° C. Lysates were clarified by centrifugation for 10 min at 12,000 g and then incubated with 5 μg of appropriate antibody for 30 min at 4° C. before the addition of Protein A-Sepharose. Immunoprecipitates were washed three times with lysis buffer, mixed with SDS sample buffer, separated by gel electrophoresis using a 4-20% Tris/glycine gel that was then dried, and exposed to X-ray film.

Assay [3] deals with MDA-468 breast cancer cell line. The assay is described as follows: FACS binding to cell lines. The format is cell-based, human.
The test system of another assay is DU145 xenografts. The assay is described as follows: established xenograft model. It counts as in vivo, nude mice. The settings on record: day 67; 1 mg i.p. The text has this:
Xenografts were allowed to establish for 18 days before therapy commenced (3 times a week for 3 weeks on days indicated). At this time the average tumor volume was 90 mm^3 (FIG. 68D).

Assay [4] deals with glioblastomas not preselected for their EGFR status. The assay is described as follows: immunohistochemistry of 46 unselected glioblastomas. Also on record: species or system human.
Procedure: Immunohistochemical analysis was performed using 5 mm sections of fresh frozen tissue applied to histology slides and fixed for 10 minutes in cold acetone. Bound primary antibody was detected with biotinylated horse anti-mouse antibody followed by an avidin-biotin-complex reaction. Diaminobenzidine tetra hydrochloride (DAB) was used as chromogen. The extent of the immunohistochemical reactivity in tissues was estimated by light microscopy and graded according to the number of immunoreactive cells in 25% increments as follows: • Focal=less than 5% • +=5-25% • ++=25-50% • +++=50-75% • ++++=>75%
For another assay, the target named is T4, wtEGFR (Homo sapiens, UniProt P00533).
T4 construct: host or cells: cell lysates
The assay is described as follows: immunoblotting of cell lysates. It counts as binding. A general note: Immunoblotting shows a protein as a band on a membrane.

For another assay, the system named is normal tissues. The assay is described as follows: immunohistochemistry of normal tissue. Also on record: species or system human. The protocol: Immunohistochemical analysis was performed using […] sections of fresh frozen tissue applied to histology slides and fixed for 10 minutes in cold acetone. Bound primary antibody was detected with biotinylated horse anti-mouse antibody followed by an avidin-biotin-complex reaction. Diaminobenzidine tetra hydrochloride (DAB) was used as chromogen. The extent of the immunohistochemical reactivity in tissues was estimated by light microscopy and graded according to the number of immunoreactive cells in 25% increments as follows: • Focal=less than 5% • +=5-25% • ++=25-50% • +++=50-75% • ++++=>75%
There was some variable staining present in tonsils with mAb806 that was restricted to the basal cell layer of the epidermis and mucosal squamous cells of the epithelium. In placenta, occasional immunostaining of the trophoblast epithelium was observed. […] All tissues were positive for the wtEGFR as evidenced by the universal staining seen with the 528 antibody (Table 3).

For assay [5], the target named is T5, EGFR extracted from DU145 cells (Homo sapiens, UniProt P00533).
T5 construct: endogenous in cells; host or cells: DU145
The assay is described as follows: immunoprecipitation and immunoblot. The format is binding. The method, then:
Cells were lysed with lysis buffer (1% Triton X-IOO, 30 mM HEPES, 150 mM NaCl, […] 4-(2-aminoethyl) benzenesulfonylfluoride, 150 nM aprotinin, 1 mM E-64 protease inhibitor, 0.5 mM EDTA, and 1 mM leupeptin, pH 7.4) for 20 minutes, clarified by centrifugation at 14,000×g for 30 minutes, immunoprecipitated with the relevant antibodies at a final concentration of 5 μg/ml for 60 minutes and captured by Sepharose-A beads overnight. Samples were then eluted with 2× NuPAGE® SDS Sample Buffer (Invitrogen), resolved on NuPAGE® gels (either 3-8% or 4-12%), electro-transferred onto Immobilon®-P transfer membrane (Millipore) then probed with the relevant antibodies before detection by chemoluminescence radiography.
Clearly, mAb806 and mAb175 can recognize only a small proportion of the EGFR on cells in the presence of an autocrine stimulation loop.

The subject of assay [6] is Ba/F3 cells expressing the wtEGFR. The assay is described as follows: EGF-induced proliferation (MTT assay). The format is cell-based. The settings on record: antibody 10 μg/ml. The protocol: Cells growing in log phase were harvested and washed twice with PBS to remove residual IL-3. […] Proliferation was determined using the MTT assay (van de Loosdrecht et al. (1994) J. Immunol. Methods. 174, 311-320).
(Tetrazolium assays rely on reduction of a dye to a coloured formazan, in cell work by metabolically active cells.)

Assay [7] has as its target T6, denatured soluble domain of the EGFR (sEGFR) (Homo sapiens, UniProt P00533).
T6 construct: sEGFR is the recombinant extracellular domain (amino acids 1-621) of the wild-type EGFR; made in house; host or cells: CHO cells
The assay is described as follows: competition ELISA. The format is binding. The note with it: after unlabeled blocking antibody. The protocol:
Briefly, the denatured soluble domain of the EGFR (sEGFR) was coated on to ELISA plates. The unlabeled 124 or 1133 antibodies were then added across the plate in increasing concentrations.

Procedure for U87MG brain xenografts: U87MG.ΔEGFR cells (1×10^5) or 5×10^5 LN-Z308.ΔEGFR, A1207.ΔEGFR, U87MG, U87MG.DK, and U87MG.wtEGFR cells in 5 μl of PBS were implanted into the right corpus stratum of nude mice brains as described previously (Mishima et al. (2000) A peptide derived from the non-receptor binding region of urokinase plasminogen activator inhibits glioblastoma growth and angiogenesis in vivo in combination with cisplatin. Proc. Natl. Acad. Sci. U.S.A. 97, 8484-8489).

B1: mAb806: murine monoclonal antibody recognizing de2-7 EGFR and amplified EGFR; VH SEQ ID NO:2, VL SEQ ID NO:4 (antibody, listed as Mus musculus, V domains shown)
VH: MRVLILLWLFTAFPGVLSDVQLQESGPSLVKPSQSLSLTCTVTGYSITSDFAWNWIRQFPGNKLEWMGYISYSGNTRYNPSLKSRISITRDTSKNQFFLQLNSVTIEDTATYYCVTAGRGFPYWGQGTLVTVSA
VL: MVSTAQFLAFLLLWFPGARCDILMTQSPSSMSVSLGDTVSITCHSSQDINSNIGWLQQRPGKSFKGLIYHGTNLDDEVPSRFSGSGSGADYSLTISSLESEDFADYYCVQYAQFPWTFGGGTKLEIKR
Regarding B1, the “binding to unique de2-7 EGFR peptide” value in assay [1] is listed as “Neither mAb806 nor the 528 antibody bound to the peptide”. Besides, the “Endo H sensitivity of precipitated EGFR” value in assay [2] is given as “sensitive to Endo H”. In addition, in the assay on U87MG brain xenografts, the effect on survival result is “did not extend survival”. Moreover, the “immunoprecipitated EGFR bands” value in the assay with de2-7 EGFR and wtEGFR is “immunoprecipitated the two de2-7 EGFR bands, the wtEGFR was completely absent; also recorded: immunoprecipitated a single band corresponding to the wtEGFR from both U87MG.wtEGFR and A431 cells”. In addition, the FACS staining result in assay [3] is “clearly stained both cell lines but at a lower level”. In the assay with DU145 xenografts, this molecule registered a mean tumor volume of 605 mm^3. This molecule also yielded a positive cases in assay [4] (46 glioblastomas) of 58.7%. For the same molecule, in assay [4] (46 glioblastomas), the positive cases/cases was 27/46. Also, the immunohistochemical staining entry in assay [4] (case with EGFR Amp. N, A2) is “++++ (++++=>75%)”; in [4] (cases with EGFR Amp. A, WT), “++++ (++++=>75%)”; in [4] (cases with EGFR Amp. N, mutation nd) it was “neg”; in assay [4] (cases with EGFR Amp. nd, mutation nd), “neg”. Also, in assay [4] (mAb806: in more than 50% of the tumor), the “cases with homogeneous immunoreactivity” value came out at 22. Further, the reactivity after immunoblotting result with wtEGFR is “bound to the wtEGFR”. In addition, the reactivity entry in the assay on normal tissues (Skin) and with normal tissues (Tonsil) was “− occ. weak reactivity” in each case. Also, the “immunoprecipitation of EGFR” value in [5] is on record as “immunoprecipitate a small proportion of the EGFR”. Further, in assay [6], the “effect on EGF-induced proliferation” value is reported as “no effect”. For the same molecule, the “Binding of biotin-labeled 806” value in assay [7] was “None”.
